The record followed here is patent US20210079101A1 (LABORATOIRE FRANAIS DU FRACTIONNEMENT ET DES BIOTECHNOLOGIES, published 2021).

The assay addresses T1, Galectin-3 protein (human, UniProt P17931 2-250).
T1 construct: Endogenous antigen in human atheroma tissue sections; also called Gal3
Briefly: double immunofluorescence staining of human endarteriectomy sections (colocalisation with anti-galectin-3 antibody). From the text: FIG. 3: Immunofluorescent staining of human endarteriectomy sections and aortas of ApoE^{-/-} and WT mouse with P3 scFv-Fc or commercial control antibodies. (A) Double immunofluorescence staining of human endarteriectomy sections. […] Size bars: 50 μm. (B) Fluorescent macroscopy of P3 scFv-Fc after ex vivo injection in ApoE^{-/-} mouse and WT mouse. A human IgG was used as a negative control antibody.
Human tissue specimens were provided by Pr DUCASSE Eric, vascular surgeon at CHU Pellegrin. For immunofluorescence stainings, human sections were deparaffinised and rehydrated. After a retrieval step (pH9), slides were blocked with (1) PBS/1% BSA/0.2% Triton X10 followed by (2) 5% goat serum and (3) addition of goat anti human IgG H+L and Fcγ specific diluted at 100 μg/mL. Primary scFv-Fc produced in baculovirus or commercially available antibodies were added overnight at 4° C. Slides were incubated with scFv-Fc diluted at 50 μg/mL in PBS/1% BSA and, as controls, secondary antibody alone or commercial antibodies according to the manufacturer's instructions. […] After 1h incubation, slides were washed in PBS 3 times and mounted with Vectashield (VWR, France).

T1 sequence (P17931 2-250 limits assumed): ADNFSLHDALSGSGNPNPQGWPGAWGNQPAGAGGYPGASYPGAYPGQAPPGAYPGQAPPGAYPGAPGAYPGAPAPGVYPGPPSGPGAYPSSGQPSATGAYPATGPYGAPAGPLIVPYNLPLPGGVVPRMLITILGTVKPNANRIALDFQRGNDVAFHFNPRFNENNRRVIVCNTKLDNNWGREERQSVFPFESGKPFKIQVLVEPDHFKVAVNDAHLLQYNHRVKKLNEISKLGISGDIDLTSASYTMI

B1: P3 scFv-Fc (Fc fusion)
chain: QVQLQQSGPGLVKPSQTLSLTCAISGDSVSSNNFGWNWIRQSPSRGLEWLGRTYYRSKWYNDYAVSVRSRITINPDTSKNQFSLQLNSVTPEDTAVYYCARQGSTYFDYWGQGTLVTVSSEFGGGGSGGGGSGGGGSRDIVMTQSPSSLSASVGDRVTITCRASQTISSSLAWFQQRPGEAPNLLIYSASSLQSGVPSRFSGSGSGTDFTLTISSLQPEDFATYSCQQTYSAPPTFGGGTKLEIK
notes: these probably describe the HEK construct without the 2 extra cysteines; also called scFv-Fc P3; Human P3 scFv-Fc; not shown: human IgG1 Fc domain with 2 extra cysteine residues at the C-terminal end (baculovirus/Sf9 construct)
As to B1, the binding result is given as “binds”.
